Target: T1, PDZ3 (the third PDZ domain of the neuronal signaling protein PSD-95/SAP90, residue 303-395) (UniProt P31016 303-395)
T1 construct: third PDZ domain of PSD-95/SAP90, residues 303-395; 15N-labelled for the NMR titration; also called PDZ3^303-395
Experiment: NMR titration; 2D 1H-15N HSQC of 15N-labelled PDZ3 303-395 (20 uM) titrated with CRIPT peptide 0-100 uM; 308 K; 20 mM sodium phosphate, 50 mM NaCl, pH 7.0; no osmolyte; single-site fit of 12 backbone amides, averaged
Settings: both partners purified

T1 sequence (P31016 303-395): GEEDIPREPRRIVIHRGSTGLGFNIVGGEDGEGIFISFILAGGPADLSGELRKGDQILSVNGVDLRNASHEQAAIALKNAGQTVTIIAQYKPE

- Kd: ~13 µM
B1: C-terminal peptide from CRIPT (Ac-TKNYKQTSV-COOH) (peptide)
peptide: Ac-TKNYKQTSV-OH
notes: C-terminal nine residues of CRIPT; also called CRIPT peptide; source: synthetic peptide (APeptide Co. Ltd, Shanghai, China)
